Values belong to the molecule of their own block, whether it stands above or below them.
Tests used:
AaFPPase-1 [1] = tested on: T1, AaFPPase-1; assay: malachite green phosphate release; type: biochemical, Aedes aegypti; settings: 100 mM MES pH 6.0, 2 mM MgCl2, 37 °C; read-out: Km μM ±SE
T1 construct: His-tagged, expressed in E. coli, purified on HiTrap chelating and PD-10 columns, ~35 kDa
From the text: malachite green phosphate release on AaFPPase-1

AaFPPase-2 [2] = target: T2, AaFPPase-2 (Aedes aegypti, UniProt Q0IF21); assay: malachite green phosphate release; type: biochemical; settings: 100 mM MES pH 6.0, 2 mM MgCl2, 37 °C; read-out: Km μM ±SE
T2 construct: gene 5568744; His-tagged, expressed in E. coli, purified on HiTrap chelating and PD-10 columns, ~35 kDa
T2 sequence (Q0IF21 1-315): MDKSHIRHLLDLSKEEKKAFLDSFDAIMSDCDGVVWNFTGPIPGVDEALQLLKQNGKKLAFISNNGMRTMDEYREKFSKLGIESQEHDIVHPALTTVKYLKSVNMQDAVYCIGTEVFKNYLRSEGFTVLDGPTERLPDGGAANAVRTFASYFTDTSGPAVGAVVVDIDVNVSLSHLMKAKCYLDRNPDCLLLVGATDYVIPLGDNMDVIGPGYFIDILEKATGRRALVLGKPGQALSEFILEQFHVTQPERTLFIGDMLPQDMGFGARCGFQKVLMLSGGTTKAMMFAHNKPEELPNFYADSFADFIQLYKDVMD

AaFPPase-1 [3] = tested on: T1, AaFPPase-1; assay: p-NPP phosphatase assay, 96-well plate; type: biochemical, Aedes aegypti; settings: Mg2+ cofactor; optimum pH 6.0
AaFPPase-2 [4] = target: T2, AaFPPase-2; assay: p-NPP phosphatase assay, inhibition; type: biochemical; settings: inhibitor 0 to 40 µM, 10 min pre-incubation
[5] = substrate: CC(C)=CCC/C(C)=C/CC/C(C)=C/CO[P@@](=O)(O)OP(=O)(O)O; assay: malachite green phosphate release; type: biochemical, Aedes aegypti; settings: 100 mM MES pH 6.0, 2 mM MgCl2, 37 °C
[6] = substrate: CC(C)=CCC/C(C)=C/COP(=O)(O)OP(=O)(O)O; assay: malachite green phosphate release; type: biochemical, Aedes aegypti; settings: 100 mM MES pH 6.0, 2 mM MgCl2, 37 °C
[7] = substrate: O=[N+]([O-])c1ccc(OP(=O)(O)O)cc1; assay: p-NPP phosphatase assay, 96-well plate; type: biochemical, Aedes aegypti; settings: Mg2+ cofactor, optimum pH 6.0

Molecule: CC(C)=CCC/C(C)=C/CC/C(C)=C/COP(=O)(O)OP(=O)(O)O [FPP]
Km (AaFPPase-1 [1]): 222 ± 11 µM

Molecule: CC(C)=CCC/C(C)=C/COP(=O)(O)OP(=O)(O)O [GPP]
Km (AaFPPase-1 [1]): 184 ± 14.2 µM

Molecule: CC(=O)N[C@@H](CSC/C=C(\C)CC/C=C(\C)CC/C=C(\C)CCC=C(C)C)C(=O)O [AGGC]
inhibition (AaFPPase-2 [4]): AGGC was a potent inhibitor of AaFPPase-1 and AaFPPase-2 (Figure S3)

B1: AaFPPase-2 (Aedes aegypti) (protein)
chain: MDKSHIRHLLDLSKEEKKAFLDSFDAIMSDCDGVVWNFTGPIPGVDEALQLLKQNGKKLAFISNNGMRTMDEYREKFSKLGIESQEHDIVHPALTTVKYLKSVNMQDAVYCIGTEVFKNYLRSEGFTVLDGPTERLPDGGAANAVRTFASYFTDTSGPAVGAVVVDIDVNVSLSHLMKAKCYLDRNPDCLLLVGATDYVIPLGDNMDVIGPGYFIDILEKATGRRALVLGKPGQALSEFILEQFHVTQPERTLFIGDMLPQDMGFGARCGFQKVLMLSGGTTKAMMFAHNKPEELPNFYADSFADFIQLYKDVMD
notes: His-tagged, expressed in E. coli, purified on HiTrap chelating and PD-10 columns, ~35 kDa
Km [5]: 221.02 ± 15.62 µM
Vmax [5]: 5.77 µmol/min/mg
kcat [5]: 2.98 s⁻¹
kcat/Km [5]: 13200 M⁻¹ s⁻¹
Km [6]: 273.98 ± 2.52 µM
Vmax [6]: 28.3 µmol/min/mg
kcat [6]: 17.5 s⁻¹
kcat/Km [6]: 63000 M⁻¹ s⁻¹
Km [7]: 315.5 ± 46.9 µM

Now from value to molecule:

Km (AaFPPase-1 [1]): > 900 µM
Km (AaFPPase-2 [2]): > 900 µM
Molecule: C=C(C)CCO[P@@](=O)(O)OP(=O)(O)O [IPP]

Km (AaFPPase-1 [3]): 3960 ± 127 µM
Molecule: O=[N+]([O-])c1ccc(OP(=O)(O)O)cc1 [p-NPP]
